These results are taken from paper PMC5778602.

One may read the stoichiometry N as the number of molecules, sites or subunits per partner or assembly.

The assay addresses T1, CstF-50 (full length, affinity tag removed) (human), Q05048.
T1 chain: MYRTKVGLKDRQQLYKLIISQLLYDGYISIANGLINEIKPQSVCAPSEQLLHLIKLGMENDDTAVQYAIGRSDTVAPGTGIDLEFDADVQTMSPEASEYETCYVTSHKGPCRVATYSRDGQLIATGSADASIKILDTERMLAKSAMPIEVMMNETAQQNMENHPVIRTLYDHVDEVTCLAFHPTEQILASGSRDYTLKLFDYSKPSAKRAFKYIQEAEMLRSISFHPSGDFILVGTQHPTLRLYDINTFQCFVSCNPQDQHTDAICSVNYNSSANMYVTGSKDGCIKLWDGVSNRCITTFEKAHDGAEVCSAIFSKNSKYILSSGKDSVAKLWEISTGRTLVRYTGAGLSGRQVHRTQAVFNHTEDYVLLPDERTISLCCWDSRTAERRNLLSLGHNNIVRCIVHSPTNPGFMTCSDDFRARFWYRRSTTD
The assay is described as follows: SEC-MALS. The following applies: remark: other sources report otherwise. (Size exclusion chromatography separates by hydrodynamic size, large species first.)

B1: CstF-50 (full length, affinity tag removed), Q05048 1-431 (natural protein)
chain: MYRTKVGLKDRQQLYKLIISQLLYDGYISIANGLINEIKPQSVCAPSEQLLHLIKLGMENDDTAVQYAIGRSDTVAPGTGIDLEFDADVQTMSPEASEYETCYVTSHKGPCRVATYSRDGQLIATGSADASIKILDTERMLAKSAMPIEVMMNETAQQNMENHPVIRTLYDHVDEVTCLAFHPTEQILASGSRDYTLKLFDYSKPSAKRAFKYIQEAEMLRSISFHPSGDFILVGTQHPTLRLYDINTFQCFVSCNPQDQHTDAICSVNYNSSANMYVTGSKDGCIKLWDGVSNRCITTFEKAHDGAEVCSAIFSKNSKYILSSGKDSVAKLWEISTGRTLVRYTGAGLSGRQVHRTQAVFNHTEDYVLLPDERTISLCCWDSRTAERRNLLSLGHNNIVRCIVHSPTNPGFMTCSDDFRARFWYRRSTTD
The molecule B1 displayed a stoichiometry N of 2.
